From FireProtDB (doi:10.1016/0301-4622(94)00150-i) come the findings set out here.

For the data set the following is noted: Aspergillus flavus, Thermal, DSC, reversible: No, whole UniProt chain shown.
Where [1] appears, read: pH 6.95, Sodium phosphate 50 mM.
[2] abbreviates: pH 7.45, Sodium phosphate 50 mM.

Values joined by “and” are separate entries in the source; they are usually repeats but may differ in a detail not shown here. Equal entries are not always repeated.

B1: Uricase wild type, Q00511 (protein)
chain: MSAVKAARYGKDNVRVYKVHKDEKTGVQTVYEMTVCVLLEGEIETSYTKADNSVIVATDSIKNTIYITAKQNPVTPPELFGSILGTHFIEKYNHIHAAHVNIVCHRWTRMDIDGKPHPHSFIRDSEEKRNVQVDVVEGKGIDIKSSLSGLTVLKSTNSQFWGFLRDEYTTLKETWDRILSTDVDATWQWKNFSGLQEVRSHVPKFDATWATAREVTLKTFAEDNSASVQATMYKMAEQILARQQLIETVEYSLPNKHYFEIDLSWHKGLQNTGKNAEVFAPQSDPNGLIKCTVGRSSLKSKL
Turning to B1, the midpoint of thermal melting (Tm) is, setting by setting: under setting [1], 65 °C; under setting [2], 68.4 °C; (pH 7.8, Sodium phosphate 50 mM) 50.1 °C; (pH 8.8, Tris-HCl 50 mM) 49.9 °C. The “unfolding enthalpy (calorimetric)” value is, setting by setting: under setting [1], 16.3 kcal/mol; (pH 7.2, Sodium phosphate 50 mM) 75.8 kcal/mol and 48.1 kcal/mol; (pH 7.25, Sodium phosphate 50 mM) 72 kcal/mol and 53.3 kcal/mol; under setting [2], 57.9 kcal/mol; (pH 7.8, Sodium phosphate 50 mM) 82.8 kcal/mol; (pH 8.5, Tris-HCl 50 mM) 78.9 kcal/mol and 29.7 kcal/mol. Moreover, the “unfolding enthalpy (calorimetric)” value is, setting by setting: (pH 8.8, Tris-HCl 50 mM) 80.1 kcal/mol; (pH 9.05, Tris-HCl 50 mM) 76.8 kcal/mol and 26.8 kcal/mol; (pH 9.5, carbonate 50 mM) 82.3 kcal/mol and 59.1 kcal/mol.
